Test results: publication PMC3267046

Substrate: O=[N+]([O-])c1cn2c(n1)OC[C@@H](OCc1ccc(OC(F)(F)F)cc1)C2
Assay: purified protein
Assay type: biochemical, Nocardia farcinica

B1: (Nocardia farcinica IFM 10152) (protein)
chain: MRMSSTGEYVPSPSEWIGNQVAQYEASDGAEAGEFDGRPLVILTTVGRKTGALRKTPVMRVEHDGRYAVVASQGGAPTHPAWYFNLVADPRAQLRDKDAVLSVVARELAGPERAEWWERAVRAYPTYQEYQDNTRRLIPVLLLEPGR
In the case of B1, the Km is reported as 21.9 µM, the kcat is reported as 0.33 ± 0.08 s⁻¹ and the kcat/Km is reported as 16000 ± 2000 M⁻¹ s⁻¹.
